Changes are numbered by the printed parent chain.
B1: A-3A08 (antibody, V domains shown)
VH: QVQLKESGPGLVAPSQSLSITCTISGFSLTTYGVHWVRQPPGKGLEWLVVIWSDGSTTYNSALKSRLNITKDNSKSQVFLKMNSLQTDDTAMYYCVRHGGLLRRDAMDYWGQGTSVTVSS
VL: QIVLTQSPAIMSASLGERVTMTCTASSSVSSNSFHWYQQKPGSSPKLWLYSTSNLASGVPARFSGSGSGTSYSLTISSMEAEDAATYYCHQYLRSPPTFGGGTKLEIK
B2: A-7D06 (antibody, V domains shown)
VH: B1 VH
VL: B1 VL
notes: mouse hybridoma supernatant
B3: A-15B08 IgG4 Chimera (antibody, V domains shown)
VH: QVQLKESGPGLVAPSQSLSITCTISGFSLTSYGVHWVRQPPGKGLEWLVVIWSDGSTTYNSTLKSRLSISKDNSKSQVFFKMNSLQTDDTAMYYCARHYDYDGDWFAYWGQGTLVTVSA
VL: B1 VL with S28R, F34L, L49I
B4: C-14D12 IgG4 Chimera (antibody, V domains shown)
VH: QVQLKESGPDLVAPSQSLSITCTVSGFSLTDYGVHWVRQPPGKGLEWLVVIWSDGSTTYNSALKSRLSITKDTSKRQVFLKMNSLQTDDTAMYYCARHAPSFIRYGSRYDALDYWGQGTSVTVSS
VL: B1 VL with M21L, S30T, N32S, S33F, F34L, L49I, L93H
B5: A-11G01 (antibody, V domains shown)
VH: B1 VH
VL: B1 VL
notes: mouse hybridoma
B6: A-11G01 (antibody, V domains shown)
VH: B1 VH
VL: B1 VL
notes: mouse hybridoma supernatant
B7: A-15B08 (antibody, V domains shown)
VH: B3 VH
VL: B1 VL with S28R, F34L, L49I
notes: mouse hybridoma supernatant in this assay
B8: A-3A08 (antibody, V domains shown)
VH: B1 VH
VL: B1 VL
notes: mouse hybridoma supernatant
B9: A-4G02 (antibody, V domains shown)
VH: B3 VH
VL: B1 VL with S28R, F34L, L49I
notes: mouse hybridoma supernatant
B10: C-14D12 (antibody, V domains shown)
VH: B4 VH
VL: B1 VL with M21L, S30T, N32S, S33F, F34L, L49I, L93H
notes: as for B7
B11: A-7D06 (antibody, V domains shown)
VH: B1 VH
VL: B1 VL
notes: mouse hybridoma
B12: C-8G11 (antibody, V domains shown)
VH: B4 VH
VL: B1 VL with M21L, S30T, N32S, S33F, F34L, L49I, L93H
notes: mouse hybridoma supernatant
B13: A-3A08 (antibody, V domains shown)
VH: B1 VH
VL: B1 VL
notes: mouse hybridoma
B14: A-14G08 (antibody, V domains shown)
VH: QVQLQQPGAELVKPGASVKLSCKASGYTFTIYWINWVKQRPGQGLEWIGKIYPGSISTDYNEKFKSKATLTVDTSSSTAYMQLSSLTSDDSAVYYCAITGTGGLAYWGQGTLVTVSA
VL: ENVLTQSPAIMSASLGEKVTMTCRASSSVNYMYWYQQKSDASPKLWIYFTSSLAPGVPGRFSGSGSGNSYSLTISTMEGEDAATYYCQQFTTSPFTFGSGTKLEIK
notes: mouse hybridoma supernatant
B15: A-15H11 (antibody, V domains shown)
VH: B14 VH
VL: B14 VL
notes: mouse hybridoma
B16: A-15H11 (antibody, V domains shown)
VH: B14 VH
VL: B14 VL
notes: mouse hybridoma supernatant

How the values were obtained:
[1] = molecular target: α5β1 integrin on U87MG cells (human, UniProt P08648 42-1049; P05556 21-798); assay: cell-based or functional assay
[2] = molecular target: T1, recombinant mouse α5β1 integrin (mouse, UniProt P11688 45-999; P09055 21-728); assay: ELISA, coated integrin, supernatant 1:10
T1 construct: bought recombinant heterodimer (R&D Systems cat. 7728-A5) coated on the plate; also called rm-α5β1
Description: (§1) Plates were washed 3 times with Wash Buffer (1× Tris Buffered Saline containing 0.05% Tween20), blocked with 2% BSA in 1×TBS (made from 10× Thermo Scientific Blocker BSA (10×) in TBS; Thermo Fisher Scientific, Waltham, MA, cat. no. 37520) for 2 hours at room temperature (RT) then incubated with hybridoma supernatants diluted 1:10 with Standard Diluent (2% BSA, 1×TBS, 0.05% Tween20). […] Absorbance 450 nm was measured.

[3] = molecular target: T2, recombinant human α5β1 integrin (human, UniProt P08648 42-995; P05556 21-728); assay: ELISA, coated integrin, supernatant 1:10
T2 construct: also called rh-α5β1
T2 sequence (P08648 42-995 limits assumed, form in doubt, chain 1 of 2): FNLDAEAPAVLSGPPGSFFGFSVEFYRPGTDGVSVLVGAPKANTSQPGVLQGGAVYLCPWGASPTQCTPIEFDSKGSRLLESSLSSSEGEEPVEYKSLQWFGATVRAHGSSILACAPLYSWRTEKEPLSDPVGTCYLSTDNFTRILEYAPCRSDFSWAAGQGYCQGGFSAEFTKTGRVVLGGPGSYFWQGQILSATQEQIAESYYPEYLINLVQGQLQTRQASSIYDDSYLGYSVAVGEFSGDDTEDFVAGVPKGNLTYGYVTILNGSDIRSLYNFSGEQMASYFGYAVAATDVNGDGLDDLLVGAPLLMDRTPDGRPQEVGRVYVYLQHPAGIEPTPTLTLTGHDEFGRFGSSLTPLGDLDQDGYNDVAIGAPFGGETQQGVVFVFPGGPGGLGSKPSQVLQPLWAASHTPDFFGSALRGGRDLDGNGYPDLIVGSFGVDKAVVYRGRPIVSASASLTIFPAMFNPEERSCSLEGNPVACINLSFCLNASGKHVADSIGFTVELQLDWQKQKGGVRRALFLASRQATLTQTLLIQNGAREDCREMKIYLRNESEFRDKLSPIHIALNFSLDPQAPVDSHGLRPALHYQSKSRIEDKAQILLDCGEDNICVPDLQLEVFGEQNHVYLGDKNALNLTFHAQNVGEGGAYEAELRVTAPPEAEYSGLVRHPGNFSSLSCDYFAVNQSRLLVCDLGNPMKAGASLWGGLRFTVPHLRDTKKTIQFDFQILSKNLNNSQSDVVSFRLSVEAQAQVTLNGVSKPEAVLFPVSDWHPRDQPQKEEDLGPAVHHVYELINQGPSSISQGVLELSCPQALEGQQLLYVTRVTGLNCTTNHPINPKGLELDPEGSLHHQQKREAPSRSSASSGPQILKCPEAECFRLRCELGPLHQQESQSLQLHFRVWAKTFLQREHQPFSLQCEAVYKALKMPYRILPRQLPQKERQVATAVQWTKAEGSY
T2 sequence (P05556 21-728 limits assumed, form in doubt, chain 2 of 2): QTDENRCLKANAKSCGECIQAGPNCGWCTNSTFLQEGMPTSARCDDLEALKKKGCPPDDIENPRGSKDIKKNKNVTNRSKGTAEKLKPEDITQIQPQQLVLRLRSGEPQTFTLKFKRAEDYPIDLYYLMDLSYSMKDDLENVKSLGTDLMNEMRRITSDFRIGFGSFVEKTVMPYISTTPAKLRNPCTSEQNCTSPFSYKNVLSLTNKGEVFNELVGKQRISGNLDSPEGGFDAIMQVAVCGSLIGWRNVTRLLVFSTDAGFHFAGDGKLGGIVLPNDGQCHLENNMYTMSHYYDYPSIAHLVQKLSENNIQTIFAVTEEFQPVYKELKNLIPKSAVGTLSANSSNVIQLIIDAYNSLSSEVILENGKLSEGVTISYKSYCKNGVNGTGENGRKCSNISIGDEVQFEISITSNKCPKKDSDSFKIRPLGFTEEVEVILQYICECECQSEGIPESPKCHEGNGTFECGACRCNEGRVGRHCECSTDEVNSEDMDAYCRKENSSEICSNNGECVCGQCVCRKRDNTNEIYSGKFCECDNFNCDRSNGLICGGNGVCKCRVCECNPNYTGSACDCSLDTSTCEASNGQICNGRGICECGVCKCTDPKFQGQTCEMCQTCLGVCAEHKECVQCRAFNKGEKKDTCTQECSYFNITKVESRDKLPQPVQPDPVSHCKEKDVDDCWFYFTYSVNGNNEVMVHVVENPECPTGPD
Description: as §1

[4] = molecular target: T3, recombinant human α4β1 integrin (human, UniProt P13612 34-977; P05556 21-728); assay: ELISA, coated integrin, supernatant 1:10
T3 construct: bought recombinant heterodimer (R&D Systems cat. 5668-A4) coated on the plate; also called rh-α4β1
T3 sequence (P13612 34-977 limits assumed, form in doubt, chain 1 of 2): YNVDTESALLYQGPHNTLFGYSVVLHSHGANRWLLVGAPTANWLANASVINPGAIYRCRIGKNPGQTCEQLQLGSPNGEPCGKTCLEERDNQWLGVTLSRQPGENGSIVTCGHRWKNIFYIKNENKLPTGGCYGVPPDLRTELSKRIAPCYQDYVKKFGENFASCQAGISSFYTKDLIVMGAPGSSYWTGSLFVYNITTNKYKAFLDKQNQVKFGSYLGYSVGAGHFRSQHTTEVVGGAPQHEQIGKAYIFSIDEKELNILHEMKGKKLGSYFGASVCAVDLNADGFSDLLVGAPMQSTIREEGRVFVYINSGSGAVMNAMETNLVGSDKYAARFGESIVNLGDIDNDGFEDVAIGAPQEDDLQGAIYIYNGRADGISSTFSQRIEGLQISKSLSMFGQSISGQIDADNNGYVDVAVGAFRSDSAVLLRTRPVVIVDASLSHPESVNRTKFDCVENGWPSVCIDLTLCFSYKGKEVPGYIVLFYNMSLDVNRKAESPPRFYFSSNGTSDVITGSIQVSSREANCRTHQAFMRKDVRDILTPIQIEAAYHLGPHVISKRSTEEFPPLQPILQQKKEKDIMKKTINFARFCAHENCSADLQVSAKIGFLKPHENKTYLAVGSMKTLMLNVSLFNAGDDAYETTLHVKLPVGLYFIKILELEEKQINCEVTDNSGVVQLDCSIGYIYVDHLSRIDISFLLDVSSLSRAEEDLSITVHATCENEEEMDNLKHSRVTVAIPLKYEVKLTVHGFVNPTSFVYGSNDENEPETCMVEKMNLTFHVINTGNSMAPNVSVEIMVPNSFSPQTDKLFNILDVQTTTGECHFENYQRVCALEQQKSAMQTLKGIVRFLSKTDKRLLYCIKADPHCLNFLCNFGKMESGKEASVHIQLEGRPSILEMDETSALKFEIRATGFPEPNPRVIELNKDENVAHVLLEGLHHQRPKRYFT
T3 sequence (P05556 21-728 limits assumed, form in doubt, chain 2 of 2): as the sequence (P05556 21-728 limits assumed, form in doubt, chain 2 of 2) above
Description: as §1

[5] = molecular target: T4, α5β1 integrin on cells (PMA-activated K562 cells; U87MG cells) (human, UniProt P08648 42-1049; P05556 21-798); assay: flow cytometry on PMA-activated K562 cells, hybridoma supernatant
T4 construct: Endogenous integrin of human cell lines; also called cellular α5β1 integrin; cell surface α5β1 integrin receptors
T4 sequence (P08648 42-1049 limits assumed, chain 1 of 2): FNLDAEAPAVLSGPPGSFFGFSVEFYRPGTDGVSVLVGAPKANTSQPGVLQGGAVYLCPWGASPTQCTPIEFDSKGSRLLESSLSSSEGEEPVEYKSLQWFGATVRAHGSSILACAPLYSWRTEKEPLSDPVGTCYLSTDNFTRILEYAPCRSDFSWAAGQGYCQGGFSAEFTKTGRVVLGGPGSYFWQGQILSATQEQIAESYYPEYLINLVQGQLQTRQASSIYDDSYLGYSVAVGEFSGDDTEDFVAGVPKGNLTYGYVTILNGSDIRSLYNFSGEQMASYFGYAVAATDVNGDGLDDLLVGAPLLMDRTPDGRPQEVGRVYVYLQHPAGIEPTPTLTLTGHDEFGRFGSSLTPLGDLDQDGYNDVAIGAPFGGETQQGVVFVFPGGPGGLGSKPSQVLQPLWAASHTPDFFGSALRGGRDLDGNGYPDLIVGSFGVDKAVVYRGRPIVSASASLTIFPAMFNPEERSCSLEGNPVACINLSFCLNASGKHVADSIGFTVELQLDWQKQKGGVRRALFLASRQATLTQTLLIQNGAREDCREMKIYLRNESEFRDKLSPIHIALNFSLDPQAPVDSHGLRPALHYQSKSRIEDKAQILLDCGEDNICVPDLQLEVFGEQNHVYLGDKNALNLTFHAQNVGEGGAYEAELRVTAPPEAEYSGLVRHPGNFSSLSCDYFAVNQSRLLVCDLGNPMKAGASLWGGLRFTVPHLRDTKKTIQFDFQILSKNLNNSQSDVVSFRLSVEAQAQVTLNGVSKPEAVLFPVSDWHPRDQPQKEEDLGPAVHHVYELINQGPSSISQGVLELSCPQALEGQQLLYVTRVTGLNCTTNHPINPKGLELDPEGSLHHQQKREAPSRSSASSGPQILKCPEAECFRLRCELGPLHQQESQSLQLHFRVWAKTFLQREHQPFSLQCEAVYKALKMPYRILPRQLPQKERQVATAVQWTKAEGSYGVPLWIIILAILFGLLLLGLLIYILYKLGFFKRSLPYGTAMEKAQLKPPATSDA
T4 sequence (P05556 21-798 limits assumed, chain 2 of 2): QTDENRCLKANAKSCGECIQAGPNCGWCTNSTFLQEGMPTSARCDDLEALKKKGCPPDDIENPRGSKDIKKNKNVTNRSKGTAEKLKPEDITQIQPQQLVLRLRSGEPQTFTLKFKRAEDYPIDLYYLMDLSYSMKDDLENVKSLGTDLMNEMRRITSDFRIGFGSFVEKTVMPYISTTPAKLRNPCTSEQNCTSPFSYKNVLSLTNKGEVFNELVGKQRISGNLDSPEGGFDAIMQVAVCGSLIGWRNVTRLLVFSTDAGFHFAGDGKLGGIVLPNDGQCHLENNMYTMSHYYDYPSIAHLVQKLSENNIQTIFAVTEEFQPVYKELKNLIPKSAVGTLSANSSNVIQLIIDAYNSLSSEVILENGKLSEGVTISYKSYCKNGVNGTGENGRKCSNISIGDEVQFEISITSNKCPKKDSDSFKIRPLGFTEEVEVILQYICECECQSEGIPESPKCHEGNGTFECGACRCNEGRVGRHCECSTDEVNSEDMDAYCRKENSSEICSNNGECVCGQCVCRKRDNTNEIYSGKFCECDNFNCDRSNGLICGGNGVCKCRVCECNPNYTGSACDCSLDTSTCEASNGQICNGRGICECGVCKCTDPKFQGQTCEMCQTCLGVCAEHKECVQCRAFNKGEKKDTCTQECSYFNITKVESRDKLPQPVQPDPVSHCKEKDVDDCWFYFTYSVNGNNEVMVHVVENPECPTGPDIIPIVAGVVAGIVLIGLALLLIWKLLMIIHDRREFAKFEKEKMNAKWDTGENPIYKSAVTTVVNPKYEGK
Description: Four weeks later cells from spleens and draining lymph nodes were fused to create hybridomas. […] In short, hybridoma supernatants were incubated with the activated K562 cells for 20 minutes, washed, then incubated with a fluorescent conjugated detecting antibody for 20 minutes, washed, resuspended in 7-Aminoactinomycin D, and Mean Fluorescence Intensity (MFI) measured on a Guava cytometer (Luminex Corporation, Austin, TX 78727).

Absorbance 450 nm [2] [A450]	Absorbance 450 nm [3] [A450]	Absorbance 450 nm [4] [A450]	other results	Molecule
–	–	–	Cell Counts (Curve Bottom) [1]: 32000 cells; Cell Counts (Curve Top) [1]: 50000 cells	IgG4 Isotype (antibody)
0.671	–	–	–	B1
0.0755	0.613	0.0848	–	B2
–	–	–	% Inhibition [1]: 86%; Cell Counts (Curve Bottom) [1]: 4780 cells; Cell Counts (Curve Top) [1]: 33800 cells	B3
–	–	–	% Inhibition [1]: 78%; Cell Counts (Curve Bottom) [1]: 8040 cells; Cell Counts (Curve Top) [1]: 37200 cells	B4
–	–	–	MFI [5]: 1610	B5
0.0766	0.519	0.0843	–	B6
0.0924	0.824	0.0855	–	B7
–	0.352	0.0769	–	B8
0.0959	0.687	0.0801	–	B9
0.17	0.702	0.171	–	B10
–	–	–	MFI [5]: 742	B11
0.0872	0.805	0.165	–	B12
–	–	–	MFI [5]: 1180	B13
0.11	1.17	0.108	–	B14
–	–	–	MFI [5]: 6570	B15
0.0799	1.25	0.081	–	B16
